The values below come from publication PMC2929978 (Science (New York, N.Y.), 2010).

Common to all, as to test: crystal structure
In series [1] the target is fiber protein derived from HAdV-35 (fiber of Ad35F) (human adenovirus 35 (HAdV-35)).
The target in series [2] is hexon (major capsid protein) of the HAdV-5 vector Ad35F (human adenovirus 5 (HAdV-5), UniProt P04133 1-952).
The series “crystal structure” concerns the molecule itself.

As to “fiber protein derived from HAdV-35 (fiber of Ad35F) (natural protein)”, the stoichiometry N in series [1] was 3.

B1: protein IX of the HAdV-5 vector Ad35F (natural protein)
chain: MSTNSFDGSIVSSYLTTRMPPWAGVRQNVMGSSIDGRPVLPANSTTLTYETVSGTPLETAASAAASAAAATARGIVTDFAFLSPLASSAASRSSARDDKLTALLAQLDSLTRELNVVSQQLLDLRQQVSALKASSPPNAV
B1: the binding result in series [2] is given as “binds”.

B2: penton base (PB) of the HAdV-5 vector Ad35F (natural protein)
chain: MRRAAMYEEGPPPSYESVVSAAPVAAALGSPFDAPLDPPFVPPRYLRPTGGRNSIRYSELAPLFDTTRVYLVDNKSTDVASLNYQNDHSNFLTTVIQNNDYSPGEASTQTINLDDRSHWGGDLKTILHTNMPNVNEFMFTNKFKARVMVSRLPTKDNQVELKYEWVEFTLPEGNYSETMTIDLMNNAIVEHYLKVGRQNGVLESDIGVKFDTRNFRLGFDPVTGLVMPGVYTNEAFHPDIILLPGCGVDFTHSRLSNLLGIRKRQPFQEGFRITYDDLEGGNIPALLDVDAYQASLKDDTEQGGGGAGGSNSSGSGAEENSNAAAAAMQPVEDMNDHAIRGDTFATRAEEKRAEAEAAAEAAAPAAQPEVEKPQKKPVIKPLTEDSKKRSYNLISNDSTFTQYRSWYLAYNYGDPQTGIRSWTLLCTPDVTCGSEQVYWSLPDMMQDPVTFRSTRQISNFPVVGAELLPVHSKSFYNDQAVYSQLIRQFTSLTHVFNRFPENQILARPPAPTITTVSENVPALTDHGTLPLRNSIGGVQRVTITDARRRTCPYVYKALGIVSPRVLSSRTF
For B2, the “stoichiometry N” value in “crystal structure” was 5.
